Like-named read-outs stand apart in the source and are kept apart here.
Tests used:
Test in all cases: cell-based or functional assay
beta-klotho [1] = biological target: beta-klotho
beta-klotho [2] = biological target: beta-klotho; remark: listed apart in the source
beta-klotho [3] = biological target: beta-klotho; remark: listed apart in the source
beta-klotho [4] = biological target: beta-klotho; remark: listed apart in the source
beta-klotho [5] = biological target: beta-klotho; remark: listed apart in the source
beta-klotho [6] = biological target: beta-klotho; remark: listed apart in the source

B1: Tethered Molecule of two FGF21 P171C polypeptides (20 kDa PEG linker) (ligand)
chain: MHPIPDSSPLLQFGGQVRQRYLYTDDAQQTEAHLEIREDGTVGGAADQSPESLLQLKALKPGVIQILGVKTSRFLCQRPDGALYGSLHFDPEACSFRELLLEDGYNVYQSEAHGLPLHLPGNKSPHRDPAPRGPARFLPLPGLPPAPPEPPGILAPQPPDVGSSDPLSMVGCSQGRSPSYAS
modifications: Cys 171 of the two chains joined by one 20 kDa PEG bis-maleimide
**Q.** B1 was tested. Which “EC50, ELK-luciferase assay” value (beta-klotho [1]) did it give?
**A.** 0.21 nM

B2: Tethered Molecule of two FGF21 R175C, P171G polypeptides (20 kDa PEG linker) (ligand)
chain: MHPIPDSSPLLQFGGQVRQRYLYTDDAQQTEAHLEIREDGTVGGAADQSPESLLQLKALKPGVIQILGVKTSRFLCQRPDGALYGSLHFDPEACSFRELLLEDGYNVYQSEAHGLPLHLPGNKSPHRDPAPRGPARFLPLPGLPPAPPEPPGILAPQPPDVGSSDPLSMVGGSQGCSPSYAS
modifications: Cys 175 of the two chains joined by one 20 kDa PEG bis-maleimide
**Q.** How did the “EC50, ELK-luciferase assay” value (beta-klotho [1]) turn out when B2 was run?
**A.** 0.36 nM

B3: Tethered Molecule of two FGF21 E91C, P171G polypeptides (20 kDa PEG linker) (ligand)
chain: MHPIPDSSPLLQFGGQVRQRYLYTDDAQQTEAHLEIREDGTVGGAADQSPESLLQLKALKPGVIQILGVKTSRFLCQRPDGALYGSLHFDPCACSFRELLLEDGYNVYQSEAHGLPLHLPGNKSPHRDPAPRGPARFLPLPGLPPAPPEPPGILAPQPPDVGSSDPLSMVGGSQGRSPSYAS
modifications: Cys 91 of the two chains joined by one 20 kDa PEG bis-maleimide
**Q.** Which “EC50, ELK-luciferase assay” value (beta-klotho [1]) does the source give for B3 here?
**A.** 0.2 nM

B4: Tethered Molecule of two FGF21 G120C, P171G polypeptides (20 kDa PEG linker) (ligand)
chain: MHPIPDSSPLLQFGGQVRQRYLYTDDAQQTEAHLEIREDGTVGGAADQSPESLLQLKALKPGVIQILGVKTSRFLCQRPDGALYGSLHFDPEACSFRELLLEDGYNVYQSEAHGLPLHLPCNKSPHRDPAPRGPARFLPLPGLPPAPPEPPGILAPQPPDVGSSDPLSMVGGSQGRSPSYAS
modifications: Cys 120 of the two chains joined by one 20 kDa PEG bis-maleimide
**Q.** B4 was tested. Which “EC50, ELK-luciferase assay” value (beta-klotho [1]) did it give?
**A.** 0.51 nM

B5: Tethered Molecule of two FGF21 H125C, P171G polypeptides (20 kDa PEG linker) (ligand)
chain: MHPIPDSSPLLQFGGQVRQRYLYTDDAQQTEAHLEIREDGTVGGAADQSPESLLQLKALKPGVIQILGVKTSRFLCQRPDGALYGSLHFDPEACSFRELLLEDGYNVYQSEAHGLPLHLPGNKSPCRDPAPRGPARFLPLPGLPPAPPEPPGILAPQPPDVGSSDPLSMVGGSQGRSPSYAS
modifications: Cys 125 of the two chains joined by one 20 kDa PEG bis-maleimide
**Q.** For B5, which “EC50, ELK-luciferase assay” value (beta-klotho [1]) is on record?
**A.** 0.21 nM

B6: dually PEGylated FGF21 mutant E37C, G120C, P171G (ligand)
chain: MHPIPDSSPLLQFGGQVRQRYLYTDDAQQTEAHLEIRCDGTVGGAADQSPESLLQLKALKPGVIQILGVKTSRFLCQRPDGALYGSLHFDPEACSFRELLLEDGYNVYQSEAHGLPLHLPCNKSPHRDPAPRGPARFLPLPGLPPAPPEPPGILAPQPPDVGSSDPLSMVGGSQGRSPSYAS
modifications: 20 kDa methoxy-PEG-maleimide on Cys 37 and on Cys 120
**Q.** Which “EC50, ELK-luciferase assay” value (beta-klotho [2]) does the source give for B6 here?
**A.** 35 nM

B7: FGF21 mutant R77C, P171G, PEGylated at the N-terminus and Cys 77 (2 x 20k) (ligand)
chain: MHPIPDSSPLLQFGGQVRQRYLYTDDAQQTEAHLEIREDGTVGGAADQSPESLLQLKALKPGVIQILGVKTSRFLCQCPDGALYGSLHFDPEACSFRELLLEDGYNVYQSEAHGLPLHLPGNKSPHRDPAPRGPARFLPLPGLPPAPPEPPGILAPQPPDVGSSDPLSMVGGSQGRSPSYAS
modifications: 20 kDa PEG on the N-terminus; 20 kDa PEG on Cys 77
**Q.** How did the “EC50, ELK-luciferase assay” value (beta-klotho [3]) turn out when B7 was run?
**A.** 64 nM

B8: FGF21 mutant H125C, P171G, PEGylated at the N-terminus (5k) and Cys 125 (20k) (ligand)
chain: MHPIPDSSPLLQFGGQVRQRYLYTDDAQQTEAHLEIREDGTVGGAADQSPESLLQLKALKPGVIQILGVKTSRFLCQRPDGALYGSLHFDPEACSFRELLLEDGYNVYQSEAHGLPLHLPGNKSPCRDPAPRGPARFLPLPGLPPAPPEPPGILAPQPPDVGSSDPLSMVGGSQGRSPSYAS
modifications: 5 kDa PEG on the N-terminus; 20 kDa PEG on Cys 125
**Q.** How did the “EC50, ELK-luciferase assay” value (beta-klotho [3]) turn out when B8 was run?
**A.** 30 nM

B9: FGF21 mutant H125C, P171G, PEGylated at the N-terminus (10k) and Cys 125 (20k) (ligand)
chain: MHPIPDSSPLLQFGGQVRQRYLYTDDAQQTEAHLEIREDGTVGGAADQSPESLLQLKALKPGVIQILGVKTSRFLCQRPDGALYGSLHFDPEACSFRELLLEDGYNVYQSEAHGLPLHLPGNKSPCRDPAPRGPARFLPLPGLPPAPPEPPGILAPQPPDVGSSDPLSMVGGSQGRSPSYAS
modifications: 10 kDa PEG on the N-terminus; 20 kDa PEG on Cys 125
**Q.** For B9, which “EC50, ELK-luciferase assay” value (beta-klotho [3]) is on record?
**A.** 65 nM

B10: Tethered Molecule of two FGF21 G170C polypeptides (20 kDa PEG linker) (ligand)
chain: MHPIPDSSPLLQFGGQVRQRYLYTDDAQQTEAHLEIREDGTVGGAADQSPESLLQLKALKPGVIQILGVKTSRFLCQRPDGALYGSLHFDPEACSFRELLLEDGYNVYQSEAHGLPLHLPGNKSPHRDPAPRGPARFLPLPGLPPAPPEPPGILAPQPPDVGSSDPLSMVCPSQGRSPSYAS
modifications: Cys 170 of the two chains joined by one 20 kDa PEG bis-maleimide
**Q.** Which “EC50, ELK-luciferase assay” value (beta-klotho [1]) does the source give for B10 here?
**A.** 0.47 nM

B11: FGF21 mutant H125C, P171G, PEGylated at the N-terminus and Cys 125 (2 x 20k) (ligand)
chain: MHPIPDSSPLLQFGGQVRQRYLYTDDAQQTEAHLEIREDGTVGGAADQSPESLLQLKALKPGVIQILGVKTSRFLCQRPDGALYGSLHFDPEACSFRELLLEDGYNVYQSEAHGLPLHLPGNKSPCRDPAPRGPARFLPLPGLPPAPPEPPGILAPQPPDVGSSDPLSMVGGSQGRSPSYAS
modifications: 20 kDa PEG on the N-terminus; 20 kDa PEG on Cys 125
**Q.** Which “EC50, ELK-luciferase assay” value (beta-klotho [3]) does the source give for B11 here?
**A.** 152 nM

B12: Tethered Molecule of two FGF21 E37C, P171G polypeptides (20 kDa PEG linker) (ligand)
chain: MHPIPDSSPLLQFGGQVRQRYLYTDDAQQTEAHLEIRCDGTVGGAADQSPESLLQLKALKPGVIQILGVKTSRFLCQRPDGALYGSLHFDPEACSFRELLLEDGYNVYQSEAHGLPLHLPGNKSPHRDPAPRGPARFLPLPGLPPAPPEPPGILAPQPPDVGSSDPLSMVGGSQGRSPSYAS
modifications: Cys 37 of the two chains joined by one 20 kDa PEG bis-maleimide
**Q.** With B12 as the binder, how does the “EC50, ELK-luciferase assay” value (beta-klotho [1]) read?
**A.** 0.36 nM

B13: wild-type FGF21 (mature, un-PEGylated) (ligand)
chain: MHPIPDSSPLLQFGGQVRQRYLYTDDAQQTEAHLEIREDGTVGGAADQSPESLLQLKALKPGVIQILGVKTSRFLCQRPDGALYGSLHFDPEACSFRELLLEDGYNVYQSEAHGLPLHLPGNKSPHRDPAPRGPARFLPLPGLPPAPPEPPGILAPQPPDVGSSDPLSMVGPSQGRSPSYAS
**Q.** Which “EC50, ELK-luciferase assay” value (beta-klotho [4]) does the source give for B13 here?
**A.** 0.63 nM

**Q.** And the “EC50, ELK-luciferase assay” value (beta-klotho [5])?
**A.** 3 nM

**Q.** And the “In Vitro Activity EC50, ELK-luciferase assay” value (beta-klotho [6])?
**A.** 3 nM

B14: Tethered Molecule of two FGF21 R77C, P171G polypeptides (20 kDa PEG linker) (ligand)
chain: MHPIPDSSPLLQFGGQVRQRYLYTDDAQQTEAHLEIREDGTVGGAADQSPESLLQLKALKPGVIQILGVKTSRFLCQCPDGALYGSLHFDPEACSFRELLLEDGYNVYQSEAHGLPLHLPGNKSPHRDPAPRGPARFLPLPGLPPAPPEPPGILAPQPPDVGSSDPLSMVGGSQGRSPSYAS
modifications: Cys 77 of the two chains joined by one 20 kDa PEG bis-maleimide
**Q.** B14 was tested. Which “EC50, ELK-luciferase assay” value (beta-klotho [1]) did it give?
**A.** 0.25 nM

B15: dually PEGylated FGF21 mutant E37C, H125C, P171G (ligand)
chain: MHPIPDSSPLLQFGGQVRQRYLYTDDAQQTEAHLEIRCDGTVGGAADQSPESLLQLKALKPGVIQILGVKTSRFLCQRPDGALYGSLHFDPEACSFRELLLEDGYNVYQSEAHGLPLHLPGNKSPCRDPAPRGPARFLPLPGLPPAPPEPPGILAPQPPDVGSSDPLSMVGGSQGRSPSYAS
modifications: 20 kDa methoxy-PEG-maleimide on Cys 37 and on Cys 125
**Q.** Which “EC50, ELK-luciferase assay” value (beta-klotho [2]) does the source give for B15 here?
**A.** 37 nM

B16: dually PEGylated FGF21 mutant E91C, G120C, P171G (ligand)
chain: MHPIPDSSPLLQFGGQVRQRYLYTDDAQQTEAHLEIREDGTVGGAADQSPESLLQLKALKPGVIQILGVKTSRFLCQRPDGALYGSLHFDPCACSFRELLLEDGYNVYQSEAHGLPLHLPCNKSPHRDPAPRGPARFLPLPGLPPAPPEPPGILAPQPPDVGSSDPLSMVGGSQGRSPSYAS
modifications: 20 kDa methoxy-PEG-maleimide on Cys 91 and on Cys 120
**Q.** Which “EC50, ELK-luciferase assay” value (beta-klotho [2]) does the source give for B16 here?
**A.** 34 nM

— US20160244497A1 (Amgen, published 2016)
